Experimental data taken from PMC9127186, “Molecular Basis Underlying Hepatobiliary and Renal Excretion of Phenolic Acids of Salvia miltiorrhiza Roots (Danshen)” (Frontiers in Pharmacology, 2022).
Each block holds one molecule with its values, some of them ahead of it. Where a SMILES comes first, the peptide text is derived from it. [ ]: non-standard residue; d: D form. Sar = CNCC(=O)O

Columns and labels:
[1] = biological target: T1, rat Pept1 (Rattus norvegicus, UniProt P51574); experiment: Cellular transport assay, HEK-293 cells expressing rat Pept1; settings: positive substrate 20 μM, 10 min; rat Pept1
T1 sequence (P51574 1-710): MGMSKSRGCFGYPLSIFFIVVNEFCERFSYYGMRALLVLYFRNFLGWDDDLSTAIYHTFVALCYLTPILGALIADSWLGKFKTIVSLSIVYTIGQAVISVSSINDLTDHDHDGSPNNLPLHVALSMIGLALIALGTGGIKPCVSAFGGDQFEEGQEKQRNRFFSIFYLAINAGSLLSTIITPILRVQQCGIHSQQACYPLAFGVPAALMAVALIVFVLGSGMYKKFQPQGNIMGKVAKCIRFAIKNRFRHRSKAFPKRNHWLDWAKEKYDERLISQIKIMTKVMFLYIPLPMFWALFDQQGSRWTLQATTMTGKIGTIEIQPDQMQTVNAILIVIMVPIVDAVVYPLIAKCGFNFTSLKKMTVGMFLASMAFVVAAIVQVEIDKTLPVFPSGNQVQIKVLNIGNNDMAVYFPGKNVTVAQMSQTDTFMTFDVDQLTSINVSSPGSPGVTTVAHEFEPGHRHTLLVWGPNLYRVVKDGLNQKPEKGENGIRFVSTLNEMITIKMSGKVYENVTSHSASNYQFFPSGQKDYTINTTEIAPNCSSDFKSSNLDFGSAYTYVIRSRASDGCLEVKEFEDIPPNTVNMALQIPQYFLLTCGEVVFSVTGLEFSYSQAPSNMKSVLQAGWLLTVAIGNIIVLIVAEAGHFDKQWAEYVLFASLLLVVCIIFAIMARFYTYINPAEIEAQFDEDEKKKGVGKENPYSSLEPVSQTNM

[2] = biological target: T2, rat Pept2 (Rattus norvegicus, UniProt Q63424); experiment: Cellular transport assay, HEK-293 cells expressing rat Pept2; settings: positive substrate 20 μM, 10 min; rat Pept2
T2 sequence (Q63424 1-729): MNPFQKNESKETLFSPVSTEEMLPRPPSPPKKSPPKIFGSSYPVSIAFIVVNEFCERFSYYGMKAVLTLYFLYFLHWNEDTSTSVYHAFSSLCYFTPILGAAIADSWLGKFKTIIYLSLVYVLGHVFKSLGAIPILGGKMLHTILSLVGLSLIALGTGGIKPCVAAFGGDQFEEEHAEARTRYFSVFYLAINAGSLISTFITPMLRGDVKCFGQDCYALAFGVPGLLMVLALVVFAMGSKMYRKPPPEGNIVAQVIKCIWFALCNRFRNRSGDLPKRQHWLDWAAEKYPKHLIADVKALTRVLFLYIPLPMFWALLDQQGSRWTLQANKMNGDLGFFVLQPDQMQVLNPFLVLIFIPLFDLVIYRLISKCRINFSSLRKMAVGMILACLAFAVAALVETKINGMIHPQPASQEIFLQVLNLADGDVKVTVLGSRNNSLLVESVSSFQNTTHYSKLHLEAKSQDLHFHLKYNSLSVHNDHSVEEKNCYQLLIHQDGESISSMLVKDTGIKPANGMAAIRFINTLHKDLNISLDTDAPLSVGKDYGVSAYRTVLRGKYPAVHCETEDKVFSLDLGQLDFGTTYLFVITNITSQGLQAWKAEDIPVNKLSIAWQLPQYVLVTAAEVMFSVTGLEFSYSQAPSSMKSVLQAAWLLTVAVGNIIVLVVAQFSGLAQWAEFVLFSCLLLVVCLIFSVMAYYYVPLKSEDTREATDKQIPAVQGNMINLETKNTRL

[3] = biological target: T3, human PEPT1 (Homo sapiens, UniProt P46059); experiment: Cellular transport assay, HEK-293 cells expressing human PEPT1; settings: positive substrate 20 μM, 10 min; human transporter printed PEPE1
T3 sequence (P46059 1-708): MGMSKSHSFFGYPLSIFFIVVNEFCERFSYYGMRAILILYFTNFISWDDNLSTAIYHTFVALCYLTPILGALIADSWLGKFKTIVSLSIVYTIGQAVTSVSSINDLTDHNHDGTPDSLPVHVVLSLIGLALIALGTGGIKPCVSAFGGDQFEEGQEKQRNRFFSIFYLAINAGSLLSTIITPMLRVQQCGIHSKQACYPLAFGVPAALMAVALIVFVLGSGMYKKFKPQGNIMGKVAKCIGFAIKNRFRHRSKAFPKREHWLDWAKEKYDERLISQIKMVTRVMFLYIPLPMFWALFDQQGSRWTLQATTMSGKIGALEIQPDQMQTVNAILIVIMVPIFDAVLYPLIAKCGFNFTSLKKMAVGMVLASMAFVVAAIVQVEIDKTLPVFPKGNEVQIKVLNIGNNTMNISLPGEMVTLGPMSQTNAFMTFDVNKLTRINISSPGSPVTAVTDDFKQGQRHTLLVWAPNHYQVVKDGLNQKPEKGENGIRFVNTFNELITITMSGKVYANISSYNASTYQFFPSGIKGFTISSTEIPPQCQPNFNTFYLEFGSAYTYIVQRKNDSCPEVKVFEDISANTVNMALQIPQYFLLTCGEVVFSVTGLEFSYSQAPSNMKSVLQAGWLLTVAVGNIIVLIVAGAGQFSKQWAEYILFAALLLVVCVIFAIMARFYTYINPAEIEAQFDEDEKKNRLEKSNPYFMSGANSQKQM

[4] = biological target: T4, human PEPT2 (Homo sapiens, UniProt Q16348); experiment: Cellular transport assay, HEK-293 cells expressing human PEPT2; settings: positive substrate 20 μM, 10 min; human PEPT2
T4 sequence (Q16348 1-729): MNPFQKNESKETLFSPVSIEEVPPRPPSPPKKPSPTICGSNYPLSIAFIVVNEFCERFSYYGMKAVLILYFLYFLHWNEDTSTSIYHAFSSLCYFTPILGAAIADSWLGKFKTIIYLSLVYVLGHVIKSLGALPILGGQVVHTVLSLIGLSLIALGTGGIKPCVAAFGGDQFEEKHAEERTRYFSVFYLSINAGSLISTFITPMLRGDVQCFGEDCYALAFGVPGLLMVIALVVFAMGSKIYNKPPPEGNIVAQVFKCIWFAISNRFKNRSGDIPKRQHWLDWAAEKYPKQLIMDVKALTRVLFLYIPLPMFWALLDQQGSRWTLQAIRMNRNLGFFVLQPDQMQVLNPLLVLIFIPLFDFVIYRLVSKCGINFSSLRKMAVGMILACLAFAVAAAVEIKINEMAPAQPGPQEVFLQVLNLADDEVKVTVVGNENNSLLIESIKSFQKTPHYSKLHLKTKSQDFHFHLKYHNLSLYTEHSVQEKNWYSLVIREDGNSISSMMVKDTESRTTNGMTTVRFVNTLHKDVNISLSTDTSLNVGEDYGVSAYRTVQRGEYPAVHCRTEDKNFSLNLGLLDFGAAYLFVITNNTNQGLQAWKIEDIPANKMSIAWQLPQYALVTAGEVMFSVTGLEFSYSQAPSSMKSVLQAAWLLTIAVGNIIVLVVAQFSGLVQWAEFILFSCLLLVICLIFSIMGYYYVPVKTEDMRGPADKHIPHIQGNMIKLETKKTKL

[5] = substrate: O=C(/C=C/c1ccc(O)c(O)c1)O[C@H](Cc1ccc(O)c(O)c1)C(=O)O; experiment: cells, lysate or membranes named; settings: 5 min incubation, concentrations in Table 1, 37.0 °C
[6] = substrate: O=C(/C=C/c1ccc(O)c(O)c1/C=C/c1ccc(O)c(O)c1)O[C@H](Cc1ccc(O)c(O)c1)C(=O)O; experiment: cells, lysate or membranes named; settings: other: rat hepatic sinusoidal uptake Oatp1b2; 5 min incubation, concentrations in Table 1; 37.0 °C
[7] = substrate: O=C(/C=C/c1ccc(O)c2c1[C@H](C(=O)O)[C@@H](c1ccc(O)c(O)c1)O2)O[C@H](Cc1ccc(O)c(O)c1)C(=O)O; experiment: cells, lysate or membranes named; settings: 5 min incubation, concentrations in Table 1, 37.0 °C
[8] = substrate: O=C(O)Cc1c(/C=C/C(=O)OC(Cc2ccc(O)c(O)c2)C(=O)O)ccc(O)c1O; experiment: cells, lysate or membranes named; settings: 5 min incubation, concentrations in Table 1, 37.0 °C
[9] = other: rat hepatic sinusoidal uptake Oatp1b2
[10] = other: human hepatic sinusoidal uptake OATP1B1

- TransportTC/TransportMC ratio, positive substrate [1]: 90.1 ± 10.4 (GS)
- TransportTC/TransportMC ratio, positive substrate [2]: 101 ± 19 (GS)
- TransportTC/TransportMC ratio, positive substrate [3]: 126 ± 31 (GS)
- TransportTC/TransportMC ratio, positive substrate [4]: 360 ± 49 (GS)
Molecule: CN(CC(=O)O)C(=O)CN [GS, glycylsarcosine, reference compound] (H-Gly-[Sar]-OH)

B1: rat Oatp1b2 (Rattus norvegicus) (protein)
chain: MDHTQQSRKAAEAQPSRSKQTRFCDGFKLFLAALSFSYICKALGGVVMKSSITQIERRFDIPSSISGLIDGGFEIGNLLVIVFVSYFGSKLHRPKLIGIGCFIMGIGSILTALPHFFMGYYKYAKENDIGSLGNSTLTCFINQMTSPTGPSPEIVEKGCEKGLKSHMWIYVLMGNMLRGIGETPIVPLGISYLDDFAKEGHTSMHLGTLHTIAMIGPILGFIMSSVFAKIYVDVGYVDLNSVRITPNDARWVGAWWLSFIVNGLLCITSSIPFFFLPKIPKRSQEERKNSVSLHAPKTDEEKKHMTNLTKQEEQDPSNMTGFLRSLRSILTNEIYVIFLILTLLQVSGFIGSFTYLFKFIEQQFGRTASQANFLLGIITIPTMATAMFLGGYIVKKFKLTSVGIAKFVFFTSSVAYAFQFLYFPLLCENKPFAGLTLTYDGMNPVDSHIDVPLSYCNSDCSCDKNQWEPICGENGVTYISPCLAGCKSFRGDKKPNNTEFYDCSCISNSGNNSAHLGECPRYKCKTNYYFYIILQVTVSFFTAMGSPSLILILMKSVQPELKSLAMGFHSLIIRALGGILAPIYYGAFIDRTCIKWSVTSCGKRGACRLYNSRLFGFSYLGLNLALKTPPLFLYVVLIYFTKRKYKRNDNKTLENGRQFTDEGNPDSVNKNGYYCVPYDEQSNETPL
- Vmax [5, 9]: 0.000159 µmol/min/mg
- Vmax/Km [5, 9]: 0.08 µL/min/mg
- Vmax [6]: 1.92e-05 µmol/min/mg
- Vmax/Km [6]: 0.38 µL/min/mg
- Vmax [7, 9]: 3.77e-05 µmol/min/mg
- Vmax/Km [7, 9]: 0.41 µL/min/mg
- Vmax [8, 9]: 0.000572 µmol/min/mg
- Vmax/Km [8, 9]: 1.23 µL/min/mg

B2: human OATP1B1 (Homo sapiens) (protein)
chain: MDQNQHLNKTAEAQPSENKKTRYCNGLKMFLAALSLSFIAKTLGAIIMKSSIIHIERRFEISSSLVGFIDGSFEIGNLLVIVFVSYFGSKLHRPKLIGIGCFIMGIGGVLTALPHFFMGYYRYSKETNINSSENSTSTLSTCLINQILSLNRASPEIVGKGCLKESGSYMWIYVFMGNMLRGIGETPIVPLGLSYIDDFAKEGHSSLYLGILNAIAMIGPIIGFTLGSLFSKMYVDIGYVDLSTIRITPTDSRWVGAWWLNFLVSGLFSIISSIPFFFLPQTPNKPQKERKASLSLHVLETNDEKDQTANLTNQGKNITKNVTGFFQSFKSILTNPLYVMFVLLTLLQVSSYIGAFTYVFKYVEQQYGQPSSKANILLGVITIPIFASGMFLGGYIIKKFKLNTVGIAKFSCFTAVMSLSFYLLYFFILCENKSVAGLTMTYDGNNPVTSHRDVPLSYCNSDCNCDESQWEPVCGNNGITYISPCLAGCKSSSGNKKPIVFYNCSCLEVTGLQNRNYSAHLGECPRDDACTRKFYFFVAIQVLNLFFSALGGTSHVMLIVKIVQPELKSLALGFHSMVIRALGGILAPIYFGALIDTTCIKWSTNNCGTRGSCRTYNSTSFSRVYLGLSSMLRVSSLVLYIILIYAMKKKYQEKDINASENGSVMDEANLESLNKNKHFVPSAGADSETHC
- Vmax [5, 10]: 9.81e-05 µmol/min/mg
- Vmax/Km [5, 10]: 0.07 µL/min/mg
- Vmax [7, 10]: 2.7e-05 µmol/min/mg
- Vmax/Km [7, 10]: 0.06 µL/min/mg
- Vmax [8, 10]: 8.93e-05 µmol/min/mg
- Vmax/Km [8, 10]: 0.22 µL/min/mg
